Data on two molecules can be found in patent US20150299259A1 (FORSCHUNGSZENTRUM JUELICH, published 2015).

Where no end group is shown, it is not given here. [ ]: non-standard residue; d: D form.

Test [1] has as its target T1, PHF-6 (6-mer tau fragment 306VQIVYK311).
T1 construct: Used as fibrillary (aggregated) material; The mirror image selections used its synthetic D-enantiomer (D-PHF-6); also called L-PHF-6; aggregated tau partial peptide
T1 peptide: VQIVYK
As to the kind of experiment: regular phage display and single-phage ELISA on L-PHF-6 fibrils. Here is the method:
A phage display kit made by Biolabs was used for the following selections. At the same time, a regular phage display was carried out for the selection of L-peptides. In this regard, obtaining binding motifs after database searches allows conclusions to be drawn concerning previously unknown binding partners in vivo. Moreover, binding partners can later be tested as D-peptides or retro-inverso peptides. After selection, enriched phages were isolated and single-phage ELISA assays were carried out. […] The D-peptides Apt and Knt stem from selections against […]. Against L-PHF-6, a peptide having the sequence […] was selected, which we also analyzed in D-enantiomeric form (TD28) and as a retro-inverso peptide (TD28ri).

The target of test [2] is full-length tau protein (441 amino acids) (UniProt P10636-8 1-441, limits assumed). Put plainly: cell-based or functional assay.
Sequence of full-length tau protein (441 amino acids) (P10636 other isoform, or with tags, fused parts or gaps limits assumed): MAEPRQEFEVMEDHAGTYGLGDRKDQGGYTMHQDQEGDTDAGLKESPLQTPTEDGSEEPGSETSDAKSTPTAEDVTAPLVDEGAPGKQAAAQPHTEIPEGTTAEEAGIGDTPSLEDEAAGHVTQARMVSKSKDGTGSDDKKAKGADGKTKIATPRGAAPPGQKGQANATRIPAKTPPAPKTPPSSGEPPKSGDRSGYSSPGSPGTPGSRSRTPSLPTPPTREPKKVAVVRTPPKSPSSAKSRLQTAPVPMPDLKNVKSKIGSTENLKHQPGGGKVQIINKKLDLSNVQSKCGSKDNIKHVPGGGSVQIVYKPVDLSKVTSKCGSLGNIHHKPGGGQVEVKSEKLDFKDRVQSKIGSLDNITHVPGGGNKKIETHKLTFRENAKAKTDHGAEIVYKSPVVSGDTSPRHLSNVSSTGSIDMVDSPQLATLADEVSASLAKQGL

B1: peptide having the sequence TTSLQMRLYYPP (peptide)
peptide: TTSLQMRLYYPP
modifications: not fully specified
notes: L-peptide selected by regular phage display against L-PHF-6; also called TL28
Consider B1, for which the binding result in test [1] is “binds”. In addition, in test [2], the “DLS particle size Day 1 (Tau + AA + peptide, 1:10)” value is 5 fold and the “DLS particle size Day 8 (Tau + AA + peptide, 1:10)” value was found to be 4 fold.

On to [dT][dL][dK][dI][dV][dW] [D-enantiomeric peptide tlkivw described by Sievers et al.], for which, in test [2], the “DLS particle size Day 1 (Tau + AA + peptide, 1:10)” value was 6 fold and the “DLS particle size Day 8 (Tau + AA + peptide, 1:10)” value turned out to be 6 fold.
